For assay [1], the target named is T1, human VEGFC (human, UniProt P49767 103-227, limits assumed).
T1 construct: also called hVEGFC; VEGFC-biotin (biotin-labeled human VEGFC)
T1 sequence (looked up): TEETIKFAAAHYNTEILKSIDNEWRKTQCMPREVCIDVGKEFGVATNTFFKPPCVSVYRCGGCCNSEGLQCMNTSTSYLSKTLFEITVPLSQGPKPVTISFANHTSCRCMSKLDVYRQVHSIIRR
The experiment in a line: biolayer interferometry (ForteBio), monovalent antigen-antibody binding, 30 C.

Assay [2] concerns the target T1, human VEGFC. The experiment in a line: cell-based or functional assay.

B1: anti-VEGFC antibody am63G12.1-5G8-18B9 (VHH)
VHH: EVQLVESGGGLVQPGGSLRLSCAASGSSFSPYAMGWYRQAPGKQRELVSATSSGGFTLYADSVKGRFTISRDNSKNTVYLQMNSLRAEDTAVYYCYTYYREYDPEMYWGQGTQVTVSS
notes: also called anti-VEGFC humanized VHH antibody
For orientation: Kd means a measure of binding affinity in units of concentration. A lower Kd goes with a tighter complex. Broadly, the koff is the rate constant with which the complex falls apart. Low readings indicate slow dissociation, high ones fast dissociation. For orientation: kon means the rate constant with which the complex forms. For B1, in assay [1], the affinity, expressed as Kd, was 5.7 nM; the koff worked out at 0.00036 s⁻¹; the on-rate constant (kon) was 63100 M⁻¹ s⁻¹. In assay [2], the “IC50 of inhibition of VEGFC-induced activation of the KDR signaling pathway (NFAT-RE-luc2P/KDR HEK293 reporter cells)” value is around 4.46 nM; the “IC50 of inhibition of hVEGFC-induced BaF3-FLT4 survival and proliferation (CCK-8)” value is 0.792 nM.

(Values after patent publication EP4663202A1 (Innovent Biologics (Suzhou) Co., Ltd., dated 2025).)
